Measurements taken from publication PMC11610247.

Key:
[1] = target: SNAP-flag-tagged GLP1R p.R380C (human) (UniProt P43220); assay: AlphaScreen or HTRF
[2] = target: SNAP-flag-tagged WT GLP1R (glucagon-like peptide 1 receptor) (human) (UniProt P43220); assay: AlphaScreen or HTRF

Row | Substance | IC50 [1] | pIC50 [2]
1 | exendin-4 (from UniProt P26349 48-87) (peptide) | 400 nM | –
2 | exendin-4 (from UniProt P26349 48-87) (peptide; other documents disagree on this pair) | – | 8.13
